# Source: PMC6303335
# Biological target: VACV B18
# Assay: SPR
substance,measurement,value
human IFNα-2b,koff,0.000225 s⁻¹
